Results as given in the DeepSol protein solubility set.

Test: soluble on expression in E. coli; label from the status in PepcDB or PDB records

Sequence	soluble on expression in E. coli
MAGDPNSMKYSDLRDFIAQLESRELLKRIDYPVSPHLEMTLVSDKVLRSGGPALLFTNTPNYNMPVLTNLFGTVERVALGMGEESIVALREIGKLLAALKEPDPPKGFKDAFSKLPLLKQALNMAPKYVSGAECQTHVWEKDEVDLTLLPIQTCWPGDVAPLITWGLVTTRGPHQSRENMGIYRQQLLSKNKLIMRWLSHRGGALDYQAWQQEYPKERFPVAVTLGADPATILAAVTPVPDTLSEYAFAGLLRGQRTRLTRCIGNDLHVPASAEIVLEGYLEPGNEAPEGPYGDHTGYYNEVQSFPVFTVERITHRDKPIYHSTYTGRPPDEPAILGVALNEVFIPLLQKQFPEIVDFYLPPEGCSYRLAVVTIKKQYPGHAKRIMMAVWSFLRQFMYTKFVIVCDDDVDARNWQDVIWAMTTRMDPSRDTVMVENTPIDYLDFASPVSGLGSKMGMDATSKWPGETQREWGKPITMDEDVLNRVNGYWSLLGLKLEHHHHHH	not soluble
MGCVSSKSTTVLSPQTSFNEASRTSFRALPGPSQRQLEVYDQCLIGAARWPDDSSKSNTPENRAYCQSMYNSIRSAGDEISRGGITSFEELWGRATEWRLSKLQRGEPLYSAFASERTSDTDAVTPLVKPYKSVLARVVDHEDAHDEIMQDNLFGDLNVKVYRQTAYLHGNVIPLNTFRVATDTEYLRDRVAHLRTELGAKALKQHLQRYNPDRIDHTNASYLPIIKDHLNDLYRQAISSDLSQAELISLIARTHWWAASAMPDQRGSAAKAEFAARAIASAHGIELPPFRNGNVSDIEAMLSGEEEFVEKYRSLLDSDCFGTGHHHHHH	soluble
SNAMYKEGACLYRNPLRSKSDVKDWRMEGGGQISFDDHSLHLSHVQDEAHFVFWCPETFPDGIIVTWDFSPIEQPGLCMLFFAAAGIRGEDLFDPSLRKRTGTYPEYHSGDINALHLSYFRRKYAEERAFRTCNLRKSRGFHLAAMGADPLPSPDDADSPYRMKLIKDKGYVHFSINGLPILEWMDDGSTYGPVLTKGKIGFRQMAPMKAVYRDFAVHQAVRR	soluble
MIRTVKPKNARAKRALVKREAKLVENVKQALFIPGQSCNKNLHDIMVDLSALKKPDMKRFNRKNDIHPFEDMSPLEFFSEKNDCSLMVLMTSSKKRKNNMTFIRTFGYKIYDMIELMVADNFKLLSDFKKLTFTVGLKPMFTFQGAAFDTHPVYKQIKSLFLDFFRGESTDLQDVAGLQHVISMTIQGDFQDGEPLPNVLFRVYKLKSYKSDQGGKRLPRIELVEIGPRLDFKIGRIHTPSPDMVTEAHKKPKQLEMKTKKNVELDIMGDKLGRIHMGKQDLGKLQTRKMKGLKSKFDQGTEEGDGEVDEDYEDEASYSDDGQEYEEEFVSATDIEPSAKRQKK	not soluble
MGSDKIHHHHHHMSKLVTIYGGSGFVGRYIARRMAKEGWRVRVAVRRPNEAMHVKPYGAVGQVEPVLCNLRDDNSVAQTMRGADAVVNCVGVLNELGRNSFDAVQAEGAERIARIAAEQGVARMVHVSAIGADGDSDSAYSRSKALGEAGVLRHMPDAMILRPSVIFGTEDQFFNRFAGMTRFGPFLPVVGAETRFQPVYVDDVARAAVKGVLGQAPGGVYELGGPDVETFRALMQRMLGVIHRKRIIIALPFFAARIMAGMLDVAKFVSFQLFPNNILTRDQLKNLRRDNVVSEGAKGFADLGIAPEPMDTVLPAYLWKFRPNGQYDEIQASAKNLRA	not soluble
MNVMTEKKKLVVWVPLPPNSSWRGEGIAQTIENIVRNISPERKIEIVVSSKHAEMLVGLEKSNPNISVLTLGFRGKSTKKTIGYVSLNEVEKDSLWDLVIAKLPIIPAIFRKVGMYVSQLEYLLSLYIYSHLQRRGRFSSNNCRVWLPTPIIPYTHLLGGEKFVSFWDPFVFEYNKEFPLTAEYFVKKLSKHFSNASAIITQSRANKDYLETVMGIESSKINVIYNGSPDYSEFKKQQSNLSFSEVWSKSEFSGASKKAAFEALVNHQLNFSVLWRLLTKNKVSNRKIVLISTQNRPYKGFDQLFVLINELCLRRDNYDFIFTCNVPTKLKERYPSLYERIHEVTRVDNYLHASLYLMSDIVLHPSNVEGGLGAYPQYEASSVGKPSLINTGRHVNEMAEEGFDVDLLSSNFVNTKETVDKIEKLINSEEYMRQNIDAINRLKISWKESASNYENVFFGNENA	not soluble
MSLMTSKTSLALLCDFYEFTMSQGYFKNNKKDQICYFDIFFRKIPDSGSFAIFAGLEDILDFVENLSFDAEDIEFLRKQGIFDTEFLDFLANFKFKGEIYAMREGEVIFPNEPLLCIKATTIEAQLLETFLLLSLNHQSLIATKTNRIVRAAKDSKILEFGSRRAQGSEAALKGARAAFIGGCIGSACTLAGKIYNIPINGTMAHSWVQMFENELEAFKAYVKIYPKNPVFLIDTYDCLNSGLKNAIKVFKEFGIQEGGVRIDSGNLLELSLKIRQELDQAGLQKCKIIVSNALDEWSIKKLKEQNAPIDIFGVGERLITASSDPIFSCVYKLAALEDQGIKPKIKISENNEKSTLPHFKKLFRVYDKNTQKILFDELYVFDENPNQDENLERKELLELVYKEKRLLKKSSLNTIQDYTKEQISKLDESFLDLDRFVKFEVKLSPKLQNITEDLLKTRFEGHHHHHH	soluble
MSLHRISDRFPVHVVVWPVKVQGEGSGEEVANAIRGFNALKPGGDIARPDVLIVARGGGSLEDLWSFNDEIVVRAAAESEIPLISAVGHETDTTLIDYAADVRAPTPTGAAEMAVPVRAELEAQLSGLAARLSGSVSRQMDNRRQGVRALVRALPSLDQLLALPRRRFDEAASGLGRGLELTTLNKRRAFERSASGLRPETLLNGLKHHRQRITERMHRAETLVEREGHHHHHH	soluble
MIRRAKPLLGTLIEIAVESVVEASSQSALDEPAIQAAITAAFSRITQIGRLLSFHQQDSELNLLNRQPGQWITLSQDSLRVFKLAKWFGKASDNLFNCTIGGEMMSRGALPCYLGMPLLLQGDWQDIEIRGNQARLARPLIVTFDGIAKGYAVDMAVRELRRAGVSGGWVNAGGDLKVFGSASLDVLCRGSNGLSQKVTVRNMALASSRVSLQLSLGCPALLLPTGNVDMMSFDASNERVVSVQAPFAWRADALTKVAGYLSAEAAKDKIQQLGGQLVC	not soluble
MSLNVKIAALASHSALDVFDGAKDEGFQTIGLCKKGRERPYLEFKAIMDKCIILEDFKEIISDKVQSILLSENAIIVPNRSLAVYVGYDGIEKMKTKVFGNRYMLRWEERIGEKNYYKILNEAKISIPKLFKPEEIDRPVIVKLPEAKRKVERGFFFAVNKEDFEAKLNELLRNNVIDNEGLKNMVIEEFVFGAHFNLNYFYSPIFNRLELISVDRRIQSDWDSLYRLPADIQIKLGRIPKLIEVGHEPVTIRESLLEKVFEIGYRFVDATQKLEPPGIIGPFTLQVMVTPDLDLVVYDVAPRIGGGTNVYMGTGSQYSKFYFGKPISLGRRIALEIKHAIINNLTEKILTEGHHHHHH	soluble
MRMKPYSELTREELLELKKDLSAQYHAFQGKDLKLDMSRGKPSVEQLDLSMGMMDVLNSDCDLTCEDGTDCRNYGVLDGIREAKELLGDMIEVPADNIIIYGNSSLNVMYDTISRSMTHGVMGNTPWCKLDKVKFLCPVPGYDRHFAITEYFGIEMVNVPMTEEGPDMDIVEELVSKDESIKGIWCVPKYSNPTGNSYSDQTVRRFARLKPAAADFRIYWDNAYSVHHLYDDDQDNLIEILAECKRAGNPDLAYKFSSTSKISFPGSGIAAVATSHNNLEDIKKQLRMQTIGHDKVNQLRHVRYFKNIHGMVEHMRKHAEILRPKFEAVEAILERELGGLGIGSWTSPKGGYFISFDSMDGCAKDIVAKCKKAGVVMTGAGATYPYGKDPHDSNIRIAPSYPPLQDLITATELFALCVKIVTVNKLLGATK	not soluble
MAHHHHHHMKRVANAKHATYDMPPKGLRVRDMLEKTAQQNCNQRKRGKCRKFFFLWKMDKMGDTHLGGQANGRKNLLRSESATDEASLGGNPLKEKLKESPANWGKDKQEEQQSTDRLPLPKVGNKMPEKKPDWFHVPAPTGKKYNELKADLKKLKLHTVCEEAQCPNIGECWNIGTATIMLLGDTCTRGCKFCSIKTSSKPLPPDANEPFNTAKAICEWDINYVVLTSVDRDDLPDGGASHFAKTIELIKFSRPEILIECLVSDFQGNVDSIRKLANSGMEVYAHNIETVRRLQKFVRDRRANYEQSLWVLKTAKEINPLLYTKTSIMLGLGETKQEVLQAMADVRQNNIDVITFGQYLRPTKNHLNVVEYVSPQMFDYYKEEGMKMGFKYIASGPLVRSSYKAGEYFMKNLVEQRRGVKLHAEG	not soluble
MHTDTTRENPQASAPQAADSSQDLAATAPGQLRVIKRNGTVVPYTDDKITVAITKAFLAVEGGTAAASSRIHDTVRRLTEQVTATFKRRMPSGGTIHIEEIQDQVELALMRAGEQKVARDYVIYREARAAERKNAGAASDVAQPHP	not soluble
LPKVSEDHLAARRSQILDGARRCFAEYGYDGATVRRLEEVTGLSRGAIFHHFKDKDGLFLALAHEDATRMADVVAHEGLVQVMRDMLAQPEQFDWLGTRLEIARRLRNDPDFRRSWSQRSAELTEATMARLARQKSAGRLRDDVPTDVLIGYLDLVLDGLVARIASGHAGDNLSAVLDLVEESVRRRD	not soluble
MTTARPAKARNEGQWALGHREPLNANEELKKAGNPLDVRERIENIYAKQGFDSIDKTDLRGRFRWWGLYTQREQGYDGTWTGDDNIDKLEAKYFMMRVRCDGGALSAAALRTLGQISTEFARDTADISDRQNVQYHWIEVENVPEIWRRLDDVGLQTTEACGDCPRVVLGSPLAGESLDEVLDPTWAIEEIVRRYIGKPDFADLPRKYKTAISGLQDVAHEINDVAFIGVNHPEHGPGLDLWVGGGLSTNPMLAQRVGAWVPLGEVPEVWAAVTSVFRDYGYRRLRAKARLKFLIKDWGIAKFREVLETEYLKRPLIDGPAPEPVKHPIDHVGVQRLKNGLNAVGVAPIAGRVSGTILTAVADLMARAGSDRIRFTPYQKLVILDIPDALLDDLIAGLDALGLQSRPSHWRRNLMACSGIEFCKLSFAETRVRAQHLVPELERRLEDINSQLDVPITVNINGCPNSCARIQIADIGFKGQMIDDGHGGSVEGFQVHLGGHLGLDAGFGRKLRQHKVTSDELGDYIDRVVRNFVKHRSEGERFAQWVIRAEEDDLR	soluble
SNAMKIAVINGGTRSGGNTDVLAEKAVQGFDAEHIYLQKYPIQPIEDLRHAQGGFRPVQDDYDSIIERILQCHILIFATPIYWFGMSGTLKLFIDRWSQTLRDPRFPDFKQQMSVKQAYVIAVGGDNPKIKGLPLIQQFEHIFHFMGMSFKGYVLGEGNRPGDILRDHQALSAASRLLKRSDAI	soluble
MVWMVELKEPFATLWRGKDPFEEVKTLQGEVFRELETRRTLRFEMAGKSYFLKWHRGTTLKEIIKNLLSLRMPVLGADREWNAIHRLRDVGVDTMYGVAFGEKGMNPLTRTSFIITEDLTPTISLEDYCADWATNPPDVRVKRMLIKRVATMVRDMHAAGINHRDCYICHFLLHLPFSGKEEELKISVIDLHRAQLRTRVPGRWRDKDLIGLYFSSMNIGLTQRDIWRFMKVYFAAPLKDILKQEQGLLSQAEAKATKIRERTIRKSL	not soluble
MSLTQMPNVHDAEPIPEAARAEIDRLLLSGDLFRYTAPQDAPVALLEREFAALLGTKYALAVSSCSAALFLSLKALDLPRDARVLIPGFTFAAVPSSVVHADCVPVLCEVGENYRIDMADFKARLDDVQAVIVSHMRGHTSDMDAILSLCAARDIPVVEDAAHSLGTLWHGEKIGTLGRVGCFSFQSYKMVNAGEGGILVTDDADLVARAVIMSGAYEHNWAKHVDGDDPALSEAFARWQNKLPLYNLRLSNLSAAVIRPQLPLLAERVRRGLENHDYVADKLNSSPVLSVPAPLVAETRAPDSIQFNLVGLSDDEVTRFAEAAAARGIKVQIFGKSADNARAFWNWQFLPGGAPELPRTRDMLMRACDVRLPVRLTRDELDLIANALLAAAAEVQGPLRVYGTEGHHHHHH	soluble
